Laboratory results taken from the supplement of paper PMC9170038.

Tested on: K4 kissing-loop RNA reporter
Experiment: apparent KD of K4 kissing-loop reporter; higher = weaker reporter binding
Details: Eterna round: R107; input ligand: none
Experimental: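 RNA-MaP round R107: designed RNA switches with theophylline, tryptophan, arginine or FMN aptamers are transcribed on-chip within common flanks. They are titrated with a labelled K4 kissing-loop RNA reporter in RNA-MaP buffer (100 mM Tris pH 7.5, 80 mM KCl, 4 mM MgCl2), without ligand or with the indicated ligand. Median apparent KD per design.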
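Also: bound reporter read as fluorescence of individual clusters on recovered sequencing chips by microscopy, with normalized cluster intensities fitted with a binding model.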

Going from “AAACAUCACUGGGAGUGAUGUUCUCAGUGACGAGGACCGGUACGGCCGCCACUCGCGAGAGAUUUAGUCUAGUCUUGACUGCAUU [Excl Tryptophan A V12]” to “GAGGUACAGGCGGCCGCCACUAGUGAUGUUAGUGAUGUUAGAUAAAGUAUAUAUCGGCGUGUAGAUAGGACCGGGCCUGAUGGAG [ssrykmullin]”, the “apparent KD of K4 kissing-loop reporter” value falls from 264 nM to 60 nM (4.4-fold).

Compared with “UACAUAUUAUUUAACAUAAAUUUUACAGAAGGAGCGUGAUCAUUCACAGGUAGGUCGCUGAACUAGUGAUGUUAGUUUUAUUUUU [JR_Nu_ExcArginiA_Sub025]”, “UGACUGGAUGGAAGGAGCGCUAAACUCCUAGUGAUGUUAGGGACAUGAGGCAUAGCCUUGAAGCAGGUAGGUCGCCAUCUAGUCU [FiskerMod 29 - Jieux - Same State - Arginine B]” is 2.6-fold higher in “apparent KD of K4 kissing-loop reporter” value: 71.5 nM for the first, 184 nM for the second.

Compared with “AAGCAGUCACUCGCAGCCAUCGAAGAUGGUCGAGGACCGGUACGGCCGCCACUCGGAGUGAUGUUCCGAAGACUGCAAAAUAAAA”, “AAGACCUGCAUCGAUACCAGCCCAGUGAUGUUGGGCUGCUCUCCAUGGGUGCCAGACACGGGCCCUUGGCAGCGAGGUAGGGCCC [Zazadilabi]” is 2.4-fold lower in “apparent KD of K4 kissing-loop reporter” value: 282 nM for the first, 117 nM for the second.

First: CCGGCCCAGCCGGAUACCAGUGCGCCGCAGGGAACGGCGGGCCCAGAGUGAUGUUCGGGACACCCUUGGCAGCCGCCUGGGUCGC [#2 Same State - Theophylline B Attempt #27 (HarryS)]
Second: AAUAAUGGAGUGAUGUUCCAGUAAUGGGAUACCAGACAUGAAAAUGUCCCUUGGCAGCUCAAAGGUCUAGUGAUGUUAUAAAGAA [KL-SSTheo-A6]
The “apparent KD of K4 kissing-loop reporter” value of the first is 1.8-fold lower: 309 nM for the first, 554 nM for the second.

Compared with “UGGAUAUAGUGAUGUUAUAUAGAGAGUGAUACCAGUUUAGAGAAGAACCCUUGGCAGCAUAAAGAAGUAUCAUUAGAGAAGAAUG [ExTheophyl.Ao]”, “AAGUUGAACUGAAGGAGCGAGAAAUAGAAUGUAAGAAUAUAUGCUAGUGAUGUUAGAAAUUCUCAGGUAGGUCGCAGUAAGAAUU [V1]” is 1.6-fold higher in “apparent KD of K4 kissing-loop reporter” value: 282 nM for the first, 442 nM for the second.

“AUUUUUUACAGAAGGAGCGUGUUAUAAUAAUCAUAUUGCUUAGCGAGUGAUGUUCGCUUUACACAGGUAGGUCGCUGUUUAUUUA [JR_Nu_ExcArginiB_Sub029]” and “GGGUCAGCGCGAAGGAGCGCCCUGACAGGUUGCUGCCGUGGGCAGUGAUGUUGCUCAGUCCGGCAGGUAGGUCGCGUGCUGACCC” are within 1.5-fold of each other in “apparent KD of K4 kissing-loop reporter” value: 176 nM for the first, 183 nM for the second.

“CGACUAGUCUUGCAACCCUAGUCGAUAUGCUAGGAUAUCAGGAAACUGAGAAGGAGUUUACUUGCAGUGAUGUUGCAAGAAUAAU [KL-SSFMN-A10]” and “CUAUAAGUGCCGAGUGAUGUUCGGCCAAUACGAGGACCGGUACGGCCGCCACUCGGUCAGUGGGUGCCCACCGGGCAUGGCUGAC [Cecezaa]” are within 1.5-fold of each other in “apparent KD of K4 kissing-loop reporter” value: 133 nM for the first, 176 nM for the second.

First: AGGUUUUGAUUAGGAUAUGCACUGAGGAGGAGAAUAUAGUGAUGUUAUAUAAGAGGAAUUAGUAGAGUAGAAGGGAUUGAGGUUU [SSFMNB.T]
Second: AGAGAUAUAUGAGGAUAUGGGUUUGUUAAUGAGUUAGUUUUAGUGUUGUUUGGUUAGUGAUGUUAUUUAGAAGGCGUGAGUGAUG [aatrmullin]
The “apparent KD of K4 kissing-loop reporter” value of the first is 2.1-fold higher: 131 nM for the first, 61.4 nM for the second.

With “UGUAUGUGAUUUGAUACCAGACCAGCUGGUGGAAACUGAGUGAUGUUCAGUUAGGUUUGGGUCCCUUGGCAGCAAAUCGCAUACU [KL-SSTheoB28]” the “apparent KD of K4 kissing-loop reporter” value was 127 nM.

Same assay, conditions: Eterna round: R107; input ligand: theophylline 20 uM

First: GCAACAUUGGCAGGAUAUCCUUCUCAGUGAUGUUGAGGGUUCAGCUAACGAAAGUUAGUUGUACCAGGAGAAGGGCUAAUGUUGC [Omei KL FMN B SS A v7]
Second: GUAGAUAGGCUACAUCUCUAGUCUAAACACUAGGAUAUCAGGAAACUGAGAAGGAGUGUCAUUGGAGUGAUGUUCCAAGAAUAAU [KL-SSFMN-A17]
The “apparent KD of K4 kissing-loop reporter” value of the first is 4-fold higher: 906 nM for the first, 225 nM for the second.

Going from “GGCGUCUAAAAGUGCCUAGAGAGAAAGGAUACCAGCACCCGGCGGUGCCCUUGGCAGCCUAGCCCAGUGAUGUUGGGUCCUCUAA [Lasorian]” to “AAGUACACGAUAGUGUACACCUAGUGAUGUUAGGAUAUGCAGAUAUGCAGAAGGAACAAGUCAUCUGACAAUAGUCGGAUGACAA [FmnAX 6 #OpenEnded #K4Early]”, the “apparent KD of K4 kissing-loop reporter” value falls from 336 nM to 110 nM (3.1-fold).

“UGCAGUGAUGUUGCGAGUGGCAGAUACGAAGGAGCGUGGUGAGACACAGGUAGGUCGCGUAUCGAAAUUGCUGUCACUAAAAUGC [#8]” and “UAAAAUAAAUAAUAGAGAUAAUUACUCGAAGGAGCGACGAAUUCGUCAGGUAGGUCGCGAGUGAUGUUCGCAAAUAUUAUCUCAU [AK3 Exc Arginine A]” are within 1.5-fold of each other in “apparent KD of K4 kissing-loop reporter” value: 425 nM for the first, 345 nM for the second.

Compared with “CGUUUAUAGCAGGAUACCAGUACCCAUUAUGUACGUUUAUAGUAGAGUGAUGUUCUAAAGUACCCUUGGCAGCUUCCUGUGUCCC [ExTheophylB.Ab]”, “UAUCUAUGCUCGGCCGCCACUAGGACCGGGAUCUCUCUAGUGAUGUUAGUCUGAUCGGCCGCCACUAGGACCGGGAGUGUAGAUA [KL-SSTryp-B15 #DoubleAptamer]” is 1.9-fold lower in “apparent KD of K4 kissing-loop reporter” value: 198 nM for the first, 104 nM for the second.

Going from “CCCGUUGCGGCGGCCGCCACUGACUUAUUGAUUAGGUUGCCAGUGAUGUUGGCCACCGGUCAAUACAGGACCGGGCCAUAGCGGG [Ceisreatte]” to “CAGCGGAGUGAUGUUCUGCUUACUGCGGAUACCAGCUUCGCCAGAGGCCCUUGGCAGCCGGGCGGCUCAGUGAUGUUGGGUUGCU [Same State Theophylline A GF 15]”, the “apparent KD of K4 kissing-loop reporter” value rises from 134 nM to 920 nM (6.9-fold).

“UCGCAAGAAUCACUGUGGAGGACCUUGGCCAAGGAUAUCAAAGGAUUGAGAAGGUGGCGCCAAGUGAUGUUUGGAUGCCGGGCAG [theeternabot_exclusion_KL_FMN_A_36]” and “AAAUUUAUAUUAGAUACCAGUUUAUUGGAUGUAAAUUAUGACAUGAGUGAUGUUCAUGUAAGCCCUUGGCAGCUGGUAUGGGUUU [KL-XTheo-B22]” are within 1.5-fold of each other in “apparent KD of K4 kissing-loop reporter” value: 183 nM for the first, 124 nM for the second.

Compared with “CGAUAGGGAAGUCGAUUGCUCACUGGUAAACGAGGACCGGUACGGCCGCCACUCGGGUCCAGUGAUGUUGGACUUUGUGGCGGGC [Edladian]”, “ACAAUGAUCAAAGGAUAUCGUAAGUUAUACAUCACGCGAUGAUUCAGAGGCGAGUGAUGUUUGUCUCGAGAAGGUUGGUACCGUC [theeternabot_exclusion_KL_FMN_B_37]” is 6-fold higher in “apparent KD of K4 kissing-loop reporter” value: 99.5 nM for the first, 599 nM for the second.

Going from “UGAUAGGACAGAAGGAGCGGGAGUGAUGUUCCCAAAUGGAUAGGUCGACAAAGUCGACCCUCCCAGGUAGGUCGCUGUCCUAUCU [ArgBX 7 #SwitchBubble #StaticStem]” to “AUUUGUUUAUGUGAUACCAGACUAAGCAGUGAUGUUGCUUUUAUUUUUGAAUUUUAAAUAGUCCCUUGGCAGCACUAUGUCUGUA [#05 K4 Theophylline B Same State]”, the “apparent KD of K4 kissing-loop reporter” value falls from 247 nM to 161 nM (1.5-fold).

Going from “AAACAUCACUGGGAGUGAUGUUCUCAGUGACGAGGACCGGUACGGCCGCCACUCGCGAGAGAUUUAGUCUAGUCUUGACUGCAUU [Excl Tryptophan A V12]” to “GAGGUACAGGCGGCCGCCACUAGUGAUGUUAGUGAUGUUAGAUAAAGUAUAUAUCGGCGUGUAGAUAGGACCGGGCCUGAUGGAG [ssrykmullin]”, the “apparent KD of K4 kissing-loop reporter” value falls from 372 nM to 42 nM (8.9-fold).

Going from “UACAUAUUAUUUAACAUAAAUUUUACAGAAGGAGCGUGAUCAUUCACAGGUAGGUCGCUGAACUAGUGAUGUUAGUUUUAUUUUU [JR_Nu_ExcArginiA_Sub025]” to “UGACUGGAUGGAAGGAGCGCUAAACUCCUAGUGAUGUUAGGGACAUGAGGCAUAGCCUUGAAGCAGGUAGGUCGCCAUCUAGUCU [FiskerMod 29 - Jieux - Same State - Arginine B]”, the “apparent KD of K4 kissing-loop reporter” value rises from 97 nM to 189 nM (1.9-fold).

First: AAGCAGUCACUCGCAGCCAUCGAAGAUGGUCGAGGACCGGUACGGCCGCCACUCGGAGUGAUGUUCCGAAGACUGCAAAAUAAAA
Second: AAGACCUGCAUCGAUACCAGCCCAGUGAUGUUGGGCUGCUCUCCAUGGGUGCCAGACACGGGCCCUUGGCAGCGAGGUAGGGCCC [Zazadilabi]
The “apparent KD of K4 kissing-loop reporter” value of the first is 3.5-fold higher: 325 nM for the first, 93.1 nM for the second.

“CCGGCCCAGCCGGAUACCAGUGCGCCGCAGGGAACGGCGGGCCCAGAGUGAUGUUCGGGACACCCUUGGCAGCCGCCUGGGUCGC [#2 Same State - Theophylline B Attempt #27 (HarryS)]” and “AAUAAUGGAGUGAUGUUCCAGUAAUGGGAUACCAGACAUGAAAAUGUCCCUUGGCAGCUCAAAGGUCUAGUGAUGUUAUAAAGAA [KL-SSTheo-A6]” are within 1.5-fold of each other in “apparent KD of K4 kissing-loop reporter” value: 314 nM for the first, 401 nM for the second.
